Reference: patent US20210079111A1 (ABCYTE THERAPEUTICS, published 2021)
Blank lines part the entries; values can stand above or below the molecule they belong to.

What was measured:
[1] = molecular target: CD19 CAR chain of CD19 CAR-mIL7 (CAR-1-CD19/CAR-2-IL-7, plasmid PC035), on transduced T cells; assay: flow cytometry, CD19 CAR-mIL7 T cells stained with Protein L
[2] = molecular target: T1, CD19 on CD19 positive cells (Raji, Nalm-6) (human, UniProt P15391 20-556); assay: cell-based or functional assay
T1 sequence (looked up): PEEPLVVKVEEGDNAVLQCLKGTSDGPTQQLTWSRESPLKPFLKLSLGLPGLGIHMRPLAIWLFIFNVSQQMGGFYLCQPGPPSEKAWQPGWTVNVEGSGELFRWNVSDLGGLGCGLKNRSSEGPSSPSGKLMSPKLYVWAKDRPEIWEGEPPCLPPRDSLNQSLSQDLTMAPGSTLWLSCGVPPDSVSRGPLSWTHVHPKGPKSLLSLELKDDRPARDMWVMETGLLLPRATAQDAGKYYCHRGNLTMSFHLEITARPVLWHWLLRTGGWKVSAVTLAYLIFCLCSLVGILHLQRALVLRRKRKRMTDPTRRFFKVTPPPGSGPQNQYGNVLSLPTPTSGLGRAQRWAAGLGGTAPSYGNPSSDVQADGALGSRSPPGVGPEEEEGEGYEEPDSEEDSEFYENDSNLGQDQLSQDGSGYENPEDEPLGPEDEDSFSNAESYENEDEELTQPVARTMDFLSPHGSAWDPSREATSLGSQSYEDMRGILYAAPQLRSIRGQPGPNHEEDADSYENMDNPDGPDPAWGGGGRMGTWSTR

[3] = molecular target: T2, CD20 on CD20 positive cells (Raji, Nalm-6) (UniProt P11836 1-297, limits assumed); assay: cell-based or functional assay
T2 sequence (looked up): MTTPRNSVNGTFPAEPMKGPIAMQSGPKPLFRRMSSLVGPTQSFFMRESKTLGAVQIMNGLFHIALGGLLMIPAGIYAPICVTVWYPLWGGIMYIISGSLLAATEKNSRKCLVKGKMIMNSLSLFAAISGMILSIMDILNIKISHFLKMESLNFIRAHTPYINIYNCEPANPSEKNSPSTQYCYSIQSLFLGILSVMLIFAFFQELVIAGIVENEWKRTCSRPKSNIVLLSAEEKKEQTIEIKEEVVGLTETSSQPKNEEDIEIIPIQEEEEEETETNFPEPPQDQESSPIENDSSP

percent positive cells [1]: 49%
Molecule: Protein L

B1: CAR-1-CD19 (full humanized anti-CD19 single CAR), on transduced T cells (other)
chain: DIQMTQSPSSLSASVGDRVTITCRASQDISKYLNWYQQKPGKAPKLLIYHTSRLHSGVPSRFSGSGSGTDYTLTISSLQPEDFATYYCQQGNTLPYTFGGGTKVEIKGSTSGGGSGGGSGGGGSSQVQLQESGPGLVKPSQTLSLTCTVSGVSLPDYGVSWIRQPPGKGLEWLGVIWGSETTYYNSALKSRLTISRDNSKNTLYLQMNSLRAEDTAVYYCAKHYYYGGSYAMDYWGQGTTVTVSSTTTPAPRPPTPAPTIASQPLSLRPEACRPAAGGAVHTRGLDFACDFWLPIGCAAFVVVCILGCILICWLTKKKYSSSVHDPNGEYMFMRAVNTAKKSRLTDVTLRVKFSRSADAPAYKQGQNQLYNELNLGRREEYDVLDKRRGRDPEMGGKPRRKNPQEGLYNELQKDKMAEAYSEIGMKGERRRGKGHDGLYQGLSTATKDTYDALHMQALPPR
target cell killing at E/T ratio at 10:1, 4 h, Raji and Nalm-6 co-culture (flow cytometry, CFSE/Annexin/PI) [2]: > 90%

B2: CAR-1-CD20 (full humanized anti-CD20 single CAR), on transduced T cells (other)
chain: EIVLTQSPATLSLSPGERATMTCRASSSVNYMDWYQQKPGQAPRPWIYATSNLASGVPARFSGSGSGTDFTLTISSLEPEDFAVYYCQQWSFNPPTFGGGTKVEIKGSTSGGGSGGGSGGGGSSQVQLVQSGAEVKKPGASVKVSCKASGYTFTSYNMHWVRQAPGQGLEWIGAIYPGNGDTSYNQKFKGKATLTRDTSTSTVYMELSSLRSEDTAVYYCARSNYYGSSYWFFDVWGQGTTVTVSSTTTPAPRPPTPAPTIASQPLSLRPEACRPAAGGAVHTRGLDFACDFWLPIGCAAFVVVCILGCILICWLTKKKYSSSVHDPNGEYMFMRAVNTAKKSRLTDVTLRVKFSRSADAPAYKQGQNQLYNELNLGRREEYDVLDKRRGRDPEMGGKPRRKNPQEGLYNELQKDKMAEAYSEIGMKGERRRGKGHDGLYQGLSTATKDTYDALHMQALPPR
target cell killing at E/T ratio at 10:1, 4 h, Raji and Nalm-6 co-culture (flow cytometry, CFSE/Annexin/PI) [3]: > 80%
